Data taken from patent publication US7282556B2, “Polynucleotides and polypeptides relating to the modulation of SIRPα-CD47” (Emory University, priority 2001, dated 2007).

Biological target: T1, CD47-SIRPα1 binding (CD47-AP / SIRPα1-GST) (Homo sapiens, UniProt P78324)
T1 construct: Microtiter plates were coated with SIRPα1 extracellular domain fusion protein (SIRPα1-GST, 1 μg/ml) for 2 hr; A construct consisting of the extracellular domain of human CD47 fused to the catalytic domain of human placental AP; made in house
Assay: CD47-AP binding to immobilized SIRPα1-GST (alkaline phosphatase activity)
Settings: SIRPα-GST coated 2 μg/ml, CD47-AP 1-2 μg/ml
Protocol: FIG. 2C (right panel) is a bar graph that illustrates CD47-AP specifically binds to SIRPα-GST fusion protein but not SIRPβ-GST. In this panel, microtiter plates were coated with either SIRPα-GST or highly similar SIRPβ-GST (10 μg/ml) followed by blocking with BSA. To each well was then added recombinant CD47-AP followed by washing. Bound CD47-AP was then detected by assay for alkaline phosphatase after addition of appropriate substrate.
FIGS. 6A-6C are graphs that illustrate the effects of synthetic peptides on CD47-SIRPα binding. FIG. 6A illustrates the effect of peptide C5/D5.1 on CD47-SIRPα binding. […] After blocking, CD47-AP was added in the absence or presence of synthetic peptides C5/D5.1 and control peptides C5/D5.4, C5/D5.11 and C5/D5.12 (used as 1 mM each). “*” p<0.01. CD47-AP binding was then detected by assay of alkaline phosphatase activity and normalized with respect to binding in the absence of any peptide (CD47-AP only). FIG. 6B illustrates the effect of dose-dependent inhibition of CD47-SIRPα1 binding by peptide C5/D5.1 performed as in FIG. 6A but with increasing concentrations of peptide as indicated. […] Binding of these proteins were detected by a goat anti-GST antibody followed by peroxidase conjugated anti-goat secondary (for detecting SIRPα1-GST) or directly developed for alkaline phosphatase activity (for detecting CD47-AP). […]

T1 sequence (P78324 31-373 limits assumed): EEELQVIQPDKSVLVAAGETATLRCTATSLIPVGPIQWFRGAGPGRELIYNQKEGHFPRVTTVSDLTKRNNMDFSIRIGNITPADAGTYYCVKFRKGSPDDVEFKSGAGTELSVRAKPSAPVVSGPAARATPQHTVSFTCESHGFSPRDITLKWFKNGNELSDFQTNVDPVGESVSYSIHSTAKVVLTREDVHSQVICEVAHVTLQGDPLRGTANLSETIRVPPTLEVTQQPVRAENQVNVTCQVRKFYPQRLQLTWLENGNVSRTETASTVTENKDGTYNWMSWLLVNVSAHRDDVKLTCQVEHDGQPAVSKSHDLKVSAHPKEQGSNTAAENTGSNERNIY

- binding of AP fusion protein to SIRPα-GST (AP activity, OD405): absence of binding
B1: JAM-AP: control AP fusion protein containing the extracellular domain of junction adhesion molecule (protein)
chain: SVTVHSSEPEVRIPENNPVKLSCAYSGFSSPRVEWKFDQGDTTRLVCYNNKITASYEDRVTFLPTGITFKSVTREDTGTYTCMVSEEGGNSYGEVKVKLIVLVPPSKPTVNIPSSATIGNRAVLTCSEQDGSPPSEYTWFKDGIVMPTNPKSTRAFSNSSYVLNPTTGELVFDPLSASDTGEYSCEARNGYGTPMTSNAVRMEAVERNVGV
modifications: left off: large carriers
notes: control AP fusion protein containing the extracellular domain of junction adhesion molecule
